Columns and labels:
Peptide fragment KS24 = target: T1, Peptide fragment KS24; test: indirect ELISA, peptide as coating antigen
T1 construct: It contains VLQS; Used as ELISA coating antigen
T1 peptide: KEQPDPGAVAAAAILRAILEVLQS

Peptide fragment KL19 = target: T2, Peptide fragment KL19; test: indirect ELISA, peptide as coating antigen
T2 construct: Used as ELISA coating antigen
T2 peptide: KEQPDPGAVAAAAILRAIL

B1: KA-001 monoclonal antibody (antibody, mouse IgG1, kappa, V domains shown)
VH: DVKIVESGGGLVKLGGSLKLSCAASGFTFSRNYMSWVRQTPEKRLELVAGINNNGGSTYYPDTVKGRFTISRDNAKNTLYLQMSSLRSEDTAIYYCAKRGFITTVGAMDYWGQGISVTVSS
VL: DIQMTQTTFSLSASLGDRVTISCRASQDISNYLNWYQQIPDGTVKLLIYYTSRLHSGVPSRFSGSGSGTDYSLTISNLEQEDIATYFCQQVHTLPYTFGGGTKLEMKR
notes: also called antibody KA-001
binding result (Peptide fragment KS24): binds
binding result (Peptide fragment KL19): no binding
